Reference: publication PMC7374754, “Selection of mutant µplasmin for amyloid-β cleavage in vivo” (Scientific Reports, 2020)

Molecular target: human µPlm P642A (human)
Assay: cell-based or functional assay

B1: human alpha-2 antiplasmin (α2-AP), mature (natural protein, UniProt P08697-1 40-491, looked up)
chain: NQEQVSPLTLLKLGNQEPGGQTALKSPPGVCSRDPTPEQTHRLARAMMAFTADLFSLVAQTSTCPNLILSPLSVALALSHLALGAQNHTLQRLQQVLHAGSGPCLPHLLSRLCQDLGPGAFRLAARMYLQKGFPIKEDFLEQSEQLFGAKPVSLTGKQEDDLANINQWVKEATEGKIQEFLSGLPEDTVLLLLNAIHFQGFWRNKFDPSLTQRDSFHLDEQFTVPVEMMQARTYPLRWFLLEQPEIQVAHFPFKNNMSFVVLVPTHFEWNVSQVLANLSWDTLHPPLVWERPTKVRLPKLYLKHQMDLVATLSQLGLQELFQAPDLRGISEQSLVVSGVQHQSTLELSEVGVEAAAATSIAMSRMSLSSFSVNRPFLFFIFEDTTGLPLFVGSVRNPNPSAPRELKEQQDSPGNKDFLQSLKGFPRGDKLFGPDLKLVPPMEEDYPQFGSPK
**Q.** Which “IC50 of α2-AP inhibition of amidolytic activity, fold relative to the wild-type” value does the source give for B1 here?
**A.** The value was 2 fold of wild type.
